In patent US20080044424:

Molecular target: T1, human PAR1 (AA #27-102)/thioredoxin fusion protein (UniProt P25116)
T1 sequence: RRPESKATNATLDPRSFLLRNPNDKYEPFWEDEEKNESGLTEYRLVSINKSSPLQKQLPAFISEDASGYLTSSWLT

In the case of thrombin, the proteolytic cleavage is reported as “The PAR1/thioredoxin was cleaved to completion with thrombin”.
